According to PMC3769225, “Modulation of Global Low-Frequency Motions Underlies Allosteric Regulation: Demonstration in CRP/FNR Family Transcription Factors” (PLoS Biology, 2013):

B1: Catabolite Activator Protein (CAP) of Escherichia coli, wild-type (natural protein, UniProt P0ACJ8 1-210, looked up)
chain: MVLGKPQTDPTLEWFLSHCHIHKYPSKSTLIHQGEKAETLYYIVKGSVAVLIKDEEGKEMILSYLNQGDFIGELGLFEEGQERSAWVRAKTACEVAEISYKKFRQLIQVNPDILMRLSAQMARRLQVTSEKVGNLAFLDVTGRIAQTLLNLAKQPDAMTHPDGMQIKITRQEIGQIVGCSRETVGRILKMLEDQNLISAHGKTIVVYGTR
notes: also called CAP wild-type
B2: CAP V140A (natural protein, Escherichia coli, UniProt P0ACJ8 1-210, looked up)
chain: MVLGKPQTDPTLEWFLSHCHIHKYPSKSTLIHQGEKAETLYYIVKGSVAVLIKDEEGKEMILSYLNQGDFIGELGLFEEGQERSAWVRAKTACEVAEISYKKFRQLIQVNPDILMRLSAQMARRLQVTSEKVGNLAFLDATGRIAQTLLNLAKQPDAMTHPDGMQIKITRQEIGQIVGCSRETVGRILKMLEDQNLISAHGKTIVVYGTR
B3: CAP V140L (natural protein, Escherichia coli, UniProt P0ACJ8 1-210, looked up)
chain: MVLGKPQTDPTLEWFLSHCHIHKYPSKSTLIHQGEKAETLYYIVKGSVAVLIKDEEGKEMILSYLNQGDFIGELGLFEEGQERSAWVRAKTACEVAEISYKKFRQLIQVNPDILMRLSAQMARRLQVTSEKVGNLAFLDLTGRIAQTLLNLAKQPDAMTHPDGMQIKITRQEIGQIVGCSRETVGRILKMLEDQNLISAHGKTIVVYGTR
B4: CAP V132A (natural protein, Escherichia coli, UniProt P0ACJ8 1-210, looked up)
chain: MVLGKPQTDPTLEWFLSHCHIHKYPSKSTLIHQGEKAETLYYIVKGSVAVLIKDEEGKEMILSYLNQGDFIGELGLFEEGQERSAWVRAKTACEVAEISYKKFRQLIQVNPDILMRLSAQMARRLQVTSEKAGNLAFLDVTGRIAQTLLNLAKQPDAMTHPDGMQIKITRQEIGQIVGCSRETVGRILKMLEDQNLISAHGKTIVVYGTR
B5: CAP H160L (natural protein, Escherichia coli, UniProt P0ACJ8 1-210, looked up)
chain: MVLGKPQTDPTLEWFLSHCHIHKYPSKSTLIHQGEKAETLYYIVKGSVAVLIKDEEGKEMILSYLNQGDFIGELGLFEEGQERSAWVRAKTACEVAEISYKKFRQLIQVNPDILMRLSAQMARRLQVTSEKVGNLAFLDVTGRIAQTLLNLAKQPDAMTLPDGMQIKITRQEIGQIVGCSRETVGRILKMLEDQNLISAHGKTIVVYGTR
B6: CAP V132L (natural protein, Escherichia coli, UniProt P0ACJ8 1-210, looked up)
chain: MVLGKPQTDPTLEWFLSHCHIHKYPSKSTLIHQGEKAETLYYIVKGSVAVLIKDEEGKEMILSYLNQGDFIGELGLFEEGQERSAWVRAKTACEVAEISYKKFRQLIQVNPDILMRLSAQMARRLQVTSEKLGNLAFLDVTGRIAQTLLNLAKQPDAMTHPDGMQIKITRQEIGQIVGCSRETVGRILKMLEDQNLISAHGKTIVVYGTR

Molecular target: the molecule itself
Test: crystal structure; homodimer in crystals grown at pH 6.5 with 7-10% PEG 3350, 15-20% 2-methyl-2,4-pentanediol and 2 mM cAMP; cAMP-bound protein

Binding result, binds:
B1
B2
B3
B4
B5
B6
